Substitutions are numbered along the chain they refer to.
T1: IL-11 (Cat. 12225-HNCE, Sino Biological Inc.) (UniProt P20809 22-199, limits assumed)
T1 sequence (looked up): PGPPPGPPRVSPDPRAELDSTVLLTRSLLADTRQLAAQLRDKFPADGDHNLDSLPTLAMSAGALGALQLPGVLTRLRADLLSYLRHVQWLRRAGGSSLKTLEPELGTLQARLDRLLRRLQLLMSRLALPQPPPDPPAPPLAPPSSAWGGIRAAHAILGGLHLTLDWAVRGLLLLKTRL

T2: human IL-11 (AAH12506.1, Pro22-Leu199) (human, UniProt P20809 22-199)
T2 construct: The range Pro22-Leu199 counts on AAH12506.1; The Octet runs say only 'human IL-11'; also called hIL-11
T2 chain: T1 sequence (looked up) with H154L

B1: 3C6-hFc (antibody, human IgG1, kappa)
heavy: not shown
light: DIVLTQSPASLALSPGERATLSCRASKSVSTSGYSYIHWYQQKPGQAPRLLIYLASNLDSGVPARFSGSGSGTDFTLTISSLEEEDFATYYCQHSRDLPPTFGQGTKLEIKRTVAAPSVFIFPPSDEQLKSGTASVVCLLNNFYPREAKVQWKVDNALQSGNSQESVTEQDSKDSTYSLSSTLTLSKADYEKHKVYACEVTHQGLSSPVTKSFNRGEC
notes: human IgG1 constant regions; also called positive control antibody; hz3C6
B2: hz18A10 (antibody, human IgG1, kappa, V domains shown)
VH: EVQLVQSGAEVKKPGASVKVSCKASGYTFTTYNMDWVRQAPGQGLEWMGTIYPGNGDTSYNQKFKGRVTMTRDTSTSTVYMELSSLRSEDTAVYYCARGDLYALDYWGQGTLVTVSS
VL: DIQMTQSPSSLSASVGDRVTITCKASQSVSNDVAWYQQKPGKAPKLLIYSASNRYTGVPSRFSGSGSGTDFTFTISSLQPEDIATYYCQHDYSSPYTFGQGTKLEIKR
notes: humanized, human constant regions; also called hz18A10-VH + hz18A10-VL; parent antibody hz18A10
B3: hz8C8 (antibody, human IgG1, kappa, V domains shown)
VH: EVQLVESGGGLVQPGGSLRLSCAASGFTFSSFGMHWVRQAPGKGLEWVAYITSGSNTIYYADTVKGRFTISRDNAKNSLYLQMNSLRAEDTAVYYCAREYYSYDEGFAYWGQGTLVTVSS
VL: EIVLTQSPATLSLSPGERATLSCSVSSSISSNYLHWYQQKPGQAPRLLIYRTSNLASGIPARFSGSGSGTDFTLTISSLEPEDFAVYYCQQGVDVPFTFGQGTKLEIKR
notes: humanized, human constant regions; also called hz8C8-VH + hz8C8-VL; parent antibody hz8C8
B4: hz8C8-VHm3 + hz8C8-VL (antibody, human IgG1, kappa, V domains shown)
VH: B3 VH with S53P, I58T
VL: B3 VL
notes: human IgG1 constant regions
B5: hz8C8-VHm6 + hz8C8-VLm7 (antibody, human IgG1, kappa, V domains shown)
VH: B3 VH with S53P, N56S
VL: B3 VL with S27D, S28L, S30P, N32Q
notes: human IgG1 constant regions
B6: hz8C8-VHm4 + hz8C8-VL (antibody, human IgG1, kappa, V domains shown)
VH: B3 VH with S55A
VL: B3 VL
notes: human IgG1 constant regions
B7: hz8C8-VHm5 + hz8C8-VLm7 (antibody, human IgG1, kappa, V domains shown)
VH: B3 VH with H35S, S53P
VL: B3 VL with S27D, S28L, S30P, N32Q
notes: human IgG1 constant regions
B8: hz8C8-VHm1-m13 + hz8C8-VLm7-m2 (antibody, human IgG1, kappa, V domains shown)
VH: B3 VH with S53P, Y109S
VL: B3 VL with S27D, S28L, S30P, N32Q, R51D, T52A
notes: human IgG1 constant regions
B9: hz8C8-VHm2 + hz8C8-VL (antibody, human IgG1, kappa, V domains shown)
VH: B3 VH with S53A
VL: B3 VL
notes: human IgG1 constant regions
B10: mu8C8 (antibody, V domains shown)
VH: DVQLVESGGGLVQPGGSRKLSCAASGFTFSSFGMHWVRQSPERGLEWVAYITSGSNTIYYADTVKGRFTISRDNPENTLFLQMTSLRSEDTAMYYCAREYYSYDEGFAYWGQGTLVTVSA
VL: EIVLTQSPTTMAASPGEKITITCSVSSSISSNYLHWYQQKPGFSPKLLIYRTSNLASGVPARFSGSGSGTSHSLTIDTMEAEDVATYYCQQGVDVPFTFGSGTKLEIKR
notes: also called recombinant murine antibody 8C8
B11: 3C6-mFc (antibody, mouse IgG1)
heavy: EVQLVQSGAEVKKPGASVKISCKASGYTFTDYNMDWVKQAPGQRLEWIGDINPHNGGPIYNQKFTGRATLTVDKSASTAYMELSSLRSEDTAVYYCARGELGHWYFDVWGQGTTVTVSSAKTTPPSVYPLAPGSAAQTNSMVTLGCLVKGYFPEPVTVTWNSGSLSSGVHTFPAVLQSDLYTLSSSVTVPSSTWPSETVTCNVAHPASSTKVDKKIVPRDCGCKPCICTVPEVSSVFIFPPKPKDVLTITLTPKVTCVVVDISKDDPEVQFSWFVDDVEVHTAQTQPREEQFNSTFRSVSELPIMHQDWLNGKEFKCRVNSAAFPAPIEKTISKTKGRPKAPQVYTIPPPKEQMAKDKVSLTCMITDFFPEDITVEWQWNGQPAENYKNTQPIMDTDGSYFVYSKLNVQKSNWEAGNTFTCSVLHEGLHNHHTEKSLSHSPGK
light: DIVLTQSPASLALSPGERATLSCRASKSVSTSGYSYIHWYQQKPGQAPRLLIYLASNLDSGVPARFSGSGSGTDFTLTISSLEEEDFATYYCQHSRDLPPTFGQGTKLEIKRTVAAPTVSIFPPSSEQLTSGGASVVCFLNNFYPKDINVKWKIDGSERQNGVLNSWTDQDSKDSTYSMSSTLTLTKDEYERHNSYTCEATHKTSTSPIVKSFNRNEC
notes: murine IgG1 constant regions; also called positive control anti-IL-11 antibody
B12: mu18A10 (antibody, V domains shown)
VH: QVQLQQPGAELVKPGASVKMSCKASGYKFITYNMDWVKQTPGQGLEWIGTIYPGNGDTSYNQKFKGKATLTADKSSSTAYMQLSSLTSEDSAVYYCARGDLYALDYWGQGTSVTVSS
VL: SIVMTQTPKFLLVSAGDRVTITCKASQSVSNDVAWYQQKPGQSPKLLIYSASNRYTGVPDRFTGSGYGTDFTFTINTVQAEDLAVYFCQHDYSSPYTFGGGTKLEIKR
notes: also called recombinant murine antibody 18A10

target: T1, IL-11 (Cat. 12225-HNCE, Sino Biological …); assay: cell-based or functional assay

Blocking activity (IC50), STAT3-luc reporter	Binder
0.342 mg/L	B1
18.5 mg/L	B2
2.04 mg/L	B3
0.946 mg/L	B4
0.066 mg/L	B5
1.54 mg/L	B6
0.01 mg/L	B7
0.008 mg/L	B8
0.51 mg/L	B9

target: T1, IL-11 (Cat. 12225-HNCE, Sino Biological …); assay: competition ELISA, IL-11/IL-11Rα/GP130 complex
Summary of the method: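 Plates coated overnight with IL-11Rα-His (Met1-Val363, C-terminal 6-His); antibody samples co-incubated to compete for IL-11/IL-11Rα/GP130 complex formation. Bound complex detected colorimetrically with HRP-conjugated anti-human Fc secondary antibody. Humanized and affinity-matured mutants carried human IgG1 constant regions.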

IC50	Binder
1.9 mg/L	B1
2.56 mg/L	B3
0.828 mg/L	B4
0.54 mg/L	B5
1.01 mg/L	B6
0.65 mg/L	B7
0.54 mg/L	B8
0.694 mg/L	B9

Target: T2, human IL-11 (AAH12506.1, Pro22-Leu199)
Assay: BLI (Octet), antibody captured, human IL-11 in solution
Summary of the method: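 Murine antibodies from hybridoma supernatants in HBS-EP+ captured on anti-mouse IgG Fc biosensors; human IL-11 (300 nM) as analyte, 300 s association and 300 s dissociation. Blank-subtracted data fitted to 1:1 Langmuir model for kinetic constants. Humanized and mutant antibodies (human IgG1) captured on anti-human Fc probes, otherwise unchanged.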

Kd	koff	kon	Binder
4.77 nM	0.00216 s⁻¹	453000 M⁻¹ s⁻¹	B4
0.156 nM	0.000127 s⁻¹	812000 M⁻¹ s⁻¹	B5
1.37 nM	0.0012 s⁻¹	878000 M⁻¹ s⁻¹	B6
0.19 nM	0.000175 s⁻¹	920000 M⁻¹ s⁻¹	B7
0.0573 nM	4.32e-05 s⁻¹	753000 M⁻¹ s⁻¹	B8
0.727 nM	0.000586 s⁻¹	806000 M⁻¹ s⁻¹	B9

Target: T2, human IL-11 (AAH12506.1, Pro22-Leu199)
Assay: BLI (Octet), antibody on AHC probe, human IL-11 in solution
Procedure: (§1) When the hybridoma cells were cultured to a certain number, culture supernatants were collected and purified using Protein G affinity chromatography to obtain murine hybridoma antibodies (Hy5C2, Hy8C8, Hy16B5, Hy18A10, Hy18H10, Hy23G6 and Hy29C11). The affinity of the murine antibodies purified from the hybridoma supernatants was determined using an Octet QKe System instrument from Fortebio Inc. with an anti-mouse IgG Fc Capture biosensor to capture the Fc fragments of the antibodies, for which an anti-IL-11 antibody named “3C6-mFc” recombinantly expressed was used at the same concentration as a positive control. Specifically, a hybridoma supernatant was diluted with HBS-EP+ buffer (GE), and was allowed to pass through the surface of AMC probes (Cat: 18-5088, PALL), and so the antibody in the hybridoma supernatant was captured on the surface of the probes; then, human IL-11 diluted in the HBS-EP+ buffer (300 nM) was used as a mobile phase to react with the antibody captured on the surface of the probes. Both the binding and the dissociating were conducted for 300 seconds. When the experiment was finished, data from which response values of blank controls had been deducted was fitted using a 1:1 Langmuir binding model by software, and then kinetic constants for antigen-antibody binding were calculated. Binding signals were detected on the Octet QKe System instrument with Hy5C2, Hy8C8, Hy16B5, Hy18A10, and Hy18H10.
(§2) The affinity of hz18A10 and hz8C8 was determined according to the method provided in Example 1 using AHC bioprobes for capturing human Fc fragment instead, with other conditions unchanged. A recombinantly expressed anti-IL-11 antibody 3C6-hFc was used at the same concentration as a positive control.

Kd	koff	kon	Binder
0.712 nM	0.000581 s⁻¹	816000 M⁻¹ s⁻¹	B1
1.6 nM	0.00134 s⁻¹	836000 M⁻¹ s⁻¹	B3

Target: T2, human IL-11 (AAH12506.1, Pro22-Leu199)
Assay: as above
Remark: another data set of the same source
Procedure: as §1, §2

Kd	koff	kon	Binder
0.712 nM	0.000581 s⁻¹	816000 M⁻¹ s⁻¹	B1
3.21 nM	0.00249 s⁻¹	773000 M⁻¹ s⁻¹	B2

target: T1, IL-11 (Cat. 12225-HNCE, Sino Biological …); assay: competition ELISA: IL-11Rα-His coated, IL-11 + antibody + gp130-Fc
Procedure: The activity of the recombinant murine anti-IL-11 antibodies for blocking the formation of IL-11/IL-11Rα/GP130 complex was analyzed via competition ELISA. IL-11Rα-His (NP_004503.1, Met1-Val363, C-terminus-6-His Tag) was firstly added into ELISA plates to be coated overnight. Next day, samples were prepared as follows. […] After co-incubating and washing, an HRP conjugated anti-human Fc secondary antibody was added to develop the color which was then detected.

IC50	Binder
1.61 mg/L	B10
2.1 mg/L	B11
1.4 mg/L	B12

Target: T2, human IL-11 (AAH12506.1, Pro22-Leu199)
Assay: BLI (Octet QKe), antibody on anti-mouse Fc probe, human IL-11 300 nM
Procedure: as §1

Kd	koff	kon	Binder
0.712 nM	0.000581 s⁻¹	816000 M⁻¹ s⁻¹	B11

Reference: patent publication US20250197488A1 (MABWELL SHANGHAI BIOSCIENCE, published 2025)
